{"source": "paper PMC8257661", "binders": {"B1": {"name": "Junin virus (JUNV) Z protein (natural protein)", "chain": "MGNCNGASKSNQPDSSRVTQPAAEFRRVAHSSLYGRYNCKCCWFADTNLITCNDHYLCLRCHQVMLRNSDLCNICWKPLPTTITVPVEPTAPPP"}}, "biological_target": "JUNV L protein VNN(1177–1179)AAA (Junin virus (JUNV))", "assay": "MST", "data": [{"binder": "B1", "values": [{"measurement": "Kd", "result": 914, "unit": "nM"}]}]}
